Assay results published in patent publication US20250339569A1 (3B PHARMACEUTICALS, published 2025).
Starred links: 1 amine or outer side, 2 acyl side, 3 side chain; linkers in the order of their positions; H or OH if unused. Positions of bridges follow the written chain, without caps; N, C: chain ends. Non-standard residues stand in square brackets, D forms with d. Primed or numbered codes have the meaning given here. *: point of attachment. Af3(DImAc) = 3-aminophenylalanine acylated on the ring amine with 2-{2,5-dioxo-octahydroimidazo[4,5-d]imidazolidin-1-yl}acetic acid, O=C(CN1C(=O)NC2NC(=O)NC21)Nc1cccc(C[C@H](N[*:1])C(=O)[*:2])c1; Af3(HySuc) = 3-amino-L-phenylalanine acylated on the ring amine with 2-(3,6-dioxo-1,2,3,6-tetrahydropyridazin-4-yl)acetic acid, O=C(Cc1cc(=O)[nH][nH]c1=O)Nc1cccc(C[C@H](N[*:1])C(=O)[*:2])c1; Af3(CMPy) = 3-amino-L-phenylalanine acylated on the ring amine with 5-cyano-1-methyl-1H-pyrazole-4-carboxylic acid, Cn1ncc(C(=O)Nc2cccc(C[C@H](N[*:1])C(=O)[*:2])c2)c1C#N; af3(ac-glu) = lower case: 3-amino-D-phenylalanine, ring amine acylated with N-acetyl-D-glutamic acid, CC(=O)N[C@H](CCC(=O)[*:3])C(=O)Nc1cccc(C[C@@H](N[*:1])C(=O)[*:2])c1; Aph(5SaPyr2) = 4-amino-L-phenylalanine, ring amine acylated by 5-sulfamoylpyridine-2-carboxylic acid, NS(=O)(=O)c1ccc(C(=O)Nc2ccc(C[C@H](N[*:1])C(=O)[*:2])cc2)nc1; Af3(TzPr) = 3-amino-L-phenylalanine acylated on the ring amine with 3-(1H-1,2,4-triazol-3-yl)propanoic acid, O=C(CCc1nc[nH]n1)Nc1cccc(C[C@H](N[*:1])C(=O)[*:2])c1; Af3(Ac-Glu) = 3-aminophenylalanine acylated on the ring amine with N-acetyl-glutamic acid, CC(=O)N[C@@H](CCC(=O)[*:3])C(=O)Nc1cccc(C[C@H](N[*:1])C(=O)[*:2])c1; Aph(3MSaBz) = 4-aminophenylalanine, ring amine acylated with 3-(sulfamoylmethyl)benzoic acid, NS(=O)(=O)Cc1cccc(C(=O)Nc2ccc(C[C@H](N[*:1])C(=O)[*:2])cc2)c1; Aph(HO-Succinyl) = 4-aminophenylalanine acylated on the ring amine with succinic acid (free carboxyl), O=C(CCC(=O)[*:3])Nc1ccc(C[C@H](N[*:1])C(=O)[*:2])cc1; Aph(4SaBz) = 4-aminophenylalanine, ring amine acylated with 4-sulfamoylbenzoic acid, NS(=O)(=O)c1ccc(C(=O)Nc2ccc(C[C@H](N[*:1])C(=O)[*:2])cc2)cc1; Af3(HO-Dga) = 3-aminophenylalanine, ring amine acylated with carboxymethoxy-acetic acid, O=C(COCC(=O)[*:3])Nc1cccc(C[C@H](N[*:1])C(=O)[*:2])c1; Af3(HYDAc) = 3-aminophenylalanine, ring amine acylated with hydantoin-5-acetic acid, O=C(CC1NC(=O)NC1=O)Nc1cccc(C[C@H](N[*:1])C(=O)[*:2])c1; Aph(SaPr) = 4-amino-L-phenylalanine, ring amine acylated by 3-sulfamoylpropanoic acid, NS(=O)(=O)CCC(=O)Nc1ccc(C[C@H](N[*:1])C(=O)[*:2])cc1; 3MeBn″ = 3-methylbenzylidene, m-xylene unit (from alpha,alpha'-dibromo-m-xylene) joined to both Cys S by thioether linkages; Af3(Ac-Asp) = 3-aminophenylalanine acylated on the ring amine with N-acetyl-aspartic acid; Aph(HYDAc) = 4-amino-L-phenylalanine, ring amine acylated by hydantoin-5-acetic acid; Phe(3-NHCO(CH2)3SO2NH2) = N[C@@H](Cc1cccc(NC(=O)CCCS(N)(=O)=O)c1)C(=O)O; APAc″ = 2-(4-(amino)piperidin-1-yl)acetic acid, NC1CCN(CC(=O)*)CC1; DOTA = O=C(O)CN1CCN(CC(=O)O)CCN(CC(=O)*)CCN(CC(=O)O)CC1; PPAc = 4-carboxymethyl piperazine linker; mXylylene = c1cc(C[*:1])cc(C[*:2])c1; N4BzlCONH2 = not defined here; N4DazPhCN = not defined here; N6MeQuion = not defined here; N4BzlCN = not defined here; N4BzlCl = not defined here; NH3PhSa = not defined here; NH4PhSa = not defined here; NOAzOMe = not defined here; N4Inda = not defined here; Pip = O=C(O)[C@@H]1CCCCN1; PPAc″ = not defined here; APAc = not defined here; Dap = NC[C@H](N)C(=O)O; AEEA = NCCOCCOCC(=O)O

B1: 3BP-4262 (peptide)
peptide: {DOTA-AEEA}-DCE[dP]DWLTW[Dap]C-NH2
modifications: lactam 10-1; linker 2-11 via mXylylene
SMILES: CC(C)C[C@@H]1NC(=O)[C@H](Cc2c[nH]c3ccccc23)NC(=O)[C@H](CC(=O)O)NC(=O)[C@H]2CCCN2C(=O)[C@H](CCC(=O)O)NC(=O)[C@@H]2CSCc3cccc(c3)CSC[C@@H](C(N)=O)NC(=O)[C@H](CNC(=O)C[C@H](NC(=O)COCCOCCNC(=O)CN3CCN(CC(=O)O)CCN(CC(=O)O)CCN(CC(=O)O)CC3)C(=O)N2)NC(=O)[C@H](Cc2c[nH]c3ccccc23)NC(=O)[C@H]([C@@H](C)O)NC1=O
B2: 3BP-4456 (peptide)
peptide: {DOTA}-[Pip]YCE[dP]D[Phe(3-NHCO(CH2)3SO2NH2)]LTWSC-NH2
modifications: linker 3-12 via mXylylene
SMILES: CC(C)C[C@@H]1NC(=O)[C@H](Cc2cccc(NC(=O)CCCS(N)(=O)=O)c2)NC(=O)[C@H](CC(=O)O)NC(=O)[C@H]2CCCN2C(=O)[C@H](CCC(=O)O)NC(=O)[C@@H](NC(=O)[C@H](Cc2ccc(O)cc2)NC(=O)[C@@H]2CCCCN2C(=O)CN2CCN(CC(=O)O)CCN(CC(=O)O)CCN(CC(=O)O)CC2)CSCc2cccc(c2)CSC[C@@H](C(N)=O)NC(=O)[C@H](CO)NC(=O)[C@H](Cc2c[nH]c3ccccc23)NC(=O)[C@H]([C@@H](C)O)NC1=O

Legend:
[1] = target: human carbonic anhydrase 9 (CAIX) (human, UniProt Q16790 38-459); experiment: FACS competition on HT-29 cells, competitor tracer 3BP-4149; category B = pIC50 7.1-8.0
Experimental: (§1) CAIX-expressing human HT-29 colorectal cancer cells (DSMZ, RRID: CVCL_0320) were cultured in McCoys's 5A modified medium (Biochrom, #F1015) including 10% fetal calf serum (FCS), 2 mM L-glutamine, 100 U/ml penicillin and 100 μg/mL streptomycin. Cells were detached with Accutase (Biolegend, #423201) and washed in FACS buffer (PBS including 1% FCS). Cells were diluted in FACS buffer to a final concentration of 500.000 cells per ml. 200 μL of the cell suspension were transferred to a u-shaped non-binding 96-well plate (Greiner) and cells were washed in ice-cold FACS buffer.
(§2) When biotinylated compounds were used an additional incubation step with 1 μg/mL APC-Streptavidin (Miltenyi; #130-106-791) in 50 μL FACS buffer for 30 minutes on ice was performed.
(§3) Cells were washed twice with ice-cold FACS buffer and analyzed in an Attune NxT flow cytometer (Thermo Fisher). Median fluorescence intensities (MFI) of the APC/Cy5-channel were calculated by Attune NxT software.

[2] = target: human carbonic anhydrase IX (CAIX) (human, UniProt Q16790 38-459); experiment: FACS competition, HT-29 cells, tracer 3BP-4149; pIC50 category B: 7.1-8.0
Experimental: as §1, §2, §3

[3] = target: T1, Fc-fusion protein of human carbonic anhydrase IX (human, UniProt Q16790 38-414); experiment: SPR, captured hCAIX-Fc; pKD category A: >8.0
[4] = target: T1, Fc-fusion protein of human carbonic …; experiment: SPR, captured hCAIX-Fc; t1/2 category C: 2.1-5.0 min
Experimental: Stock solutions of test compounds were prepared by dissolving each compound in DMSO. DMSO stock solution were diluted 1:1000 in Running Buffer without DMSO. […] SPR binding analyses were performed in Single Cycle Kinetic (SCK) mode at 25° C.
For each test compound, SPR raw data in the form of resonance units (RU) were plotted as sensorgrams using the Biacore™ T200 control software. The signal from the blank sensorgram was subtracted from that of the test compound sensorgram (blank corrected). The blank corrected sensorgram was corrected for baseline drift by subtracting the sensorgram of a SCK run without the test compound (running buffer only). […] Raw data and fit results were imported as text files in IDBS. The pKD value (negative decadic logarithm of dissociation constant) was calculated in the IDBS excel template.

[5] = target: T1, Fc-fusion protein of human carbonic …; experiment: SPR, captured hCAIX-Fc; t1/2 category A: >15.0 min

Binder	pIC50 [1] [pic50]	pIC50 [2] [pic50]	pKD [3] [pkd]	also measured
{DOTA-APAc″}-VYCE[dP]D[Af3(TzPr)]LTWSC-NH2 (linker 3-12 via mXylylene) [3BP-4324]	7.1 to 8			
B1	7.1 to 8			
{DOTA-APAc″}-VYCE[dP]D[Af3(DImAc)]LTWSC-NH2 (linker 3-12 via mXylylene) [3BP-4341]	7.1 to 8			
{DOTA-APAc}-VYCE[dP]E(N4DazPhCN)WLTWSC-NH2 (linker 3-12 via mXylylene; reading uncertain) [3BP-4389]		7.1 to 8		
{DOTA-APAc″}-VYCE[dP]D[Af3(CMPy)]LTWSC-NH2 (linker 3-12 via mXylylene) [3BP-4305]	7.1 to 8			
{DOTA-APAc}-VYCE[dP]D[Aph(4SaBz)]LTWSC-NH2 (linker 3-12 via mXylylene; reading uncertain) [3BP-4398]		7.1 to 8	> 8	t1/2 (half-life of the complex, SPR) [4]: 2.1 to 5 min
{DOTA-APAc}-VYCE[dP]E(N4Inda)WLTWSC-NH2 (linker 3-12 via mXylylene; reading uncertain) [3BP-4387]		7.1 to 8	> 8	t1/2 (half-life of the complex, SPR) [5]: > 15 min
{DOTA-APAc″}-VYCE[dP]D[af3(ac-glu)]LTWSC-NH2 (linker 3-12 via mXylylene; not fully specified) [3BP-4362]	7.1 to 8			
{DOTA-APAc}-VYCE[dP]D[Aph(HYDAc)]LTWSC-NH2 (linker 3-12 via mXylylene; reading uncertain) [3BP-4458]		7.1 to 8		
{DOTA-APAc}-VYCE[dP]D[Af3(HO-Dga)]LTWSC-NH2 (linker 3-12 via 3MeBn″; reading uncertain) [3BP-4368]		7.1 to 8	> 8	t1/2 (half-life of the complex, SPR) [4]: 2.1 to 5 min
{DOTA-PPAc″}-QCE[dP]D[Aph(5SaPyr2)]LTWSC-NH2 (linker 2-11 via mXylylene; reading uncertain) [3BP-4480]		7.1 to 8		t1/2 (half-life of the complex, SPR) [4]: 2.1 to 5 min
{DOTA-PPAc}-DCE[dP]D[Aph(SaPr)]LTW[Dap]C-NH2 (lactam 1-10; linker 2-11 via mXylylene) [3BP-4498]		7.1 to 8	> 8	t1/2 (half-life of the complex, SPR) [5]: > 15 min
{DOTA-APAc″}-VYCE[dP]D[Aph(HO-Succinyl)]LTWSC-NH2 (linker 3-12 via mXylylene) [3BP-4356]	7.1 to 8			
{DOTA-APAc}-VYCE[dP]D[Aph(3MSaBz)]LTWSC-NH2 (linker 3-12 via mXylylene; reading uncertain) [3BP-4399]		7.1 to 8		
{DOTA-APAc″}-VYCE[dP]D[Af3(Ac-Glu)]LTWSC-NH2 (linker 3-12 via mXylylene) [3BP-4361]	7.1 to 8			
B2		7.1 to 8	> 8	t1/2 (half-life of the complex, SPR) [5]: > 15 min
{DOTA-APAc″}-VYCE[dP]D[Af3(Ac-Asp)]LTWSC-NH2 (linker 3-12 via mXylylene) [3BP-4363]	7.1 to 8			
{DOTA-APAc″}-VYCE[dP]D[Af3(HySuc)]LTWSC-NH2 (linker 3-12 via mXylylene) [3BP-4322]	7.1 to 8			
{DOTA-PPAc″}-YCE[dP]DWLTWSC-NH2 (linker 2-11 via mXylylene; reading uncertain) [3BP-4446]		7.1 to 8	> 8	t1/2 (half-life of the complex, SPR) [4]: 2.1 to 5 min
{DOTA-APAc}-VYCE[dP]E(NH3PhSa)WLTWSC-NH2 (linker 3-12 via mXylylene; reading uncertain) [3BP-4441]		7.1 to 8	> 8	t1/2 (half-life of the complex, SPR) [5]: > 15 min
{DOTA-APAc}-VYCE[dP]E(NH4PhSa)WLTWSC-NH2 (linker 3-12 via mXylylene; reading uncertain) [3BP-4442]		7.1 to 8	> 8	t1/2 (half-life of the complex, SPR) [5]: > 15 min
{DOTA-APAc}-VYCE[dP]D[Af3(HYDAc)]LTWSC-NH2 (linker 3-12 via mXylylene; reading uncertain) [3BP-4371]		7.1 to 8	> 8	t1/2 (half-life of the complex, SPR) [4]: 2.1 to 5 min
{DOTA-APAc}-VYCE[dP]E(N6MeQuion)WLTWSC-NH2 (linker 3-12 via mXylylene; reading uncertain) [3BP-4390]		7.1 to 8		
{DOTA-APAc″}-VYCE[dP]E(N4BzlSO2Me)WLTWSC-NH2 (linker 3-12 via mXylylene) [3BP-4333]	7.1 to 8			
{DOTA-APAc″}-VYCE[dP]E(N4BzlCN)WLTWSC-NH2 (linker 3-12 via mXylylene; not fully specified; reading uncertain) [3BP-4340]	7.1 to 8			
{DOTA-APAc″}-VYCE[dP]E(NOAzOMe)WLTWSC-NH2 (linker 3-12 via mXylylene; reading uncertain) [3BP-4339]	7.1 to 8			
{DOTA-APAc″}-VYCE[dP]E(N4BzlCONH2)WLTWSC-NH2 (linker 3-12 via mXylylene; not fully specified; reading uncertain) [3BP-4345]	7.1 to 8			
{DOTA-APAc″}-VYCE[dP]E(N4BzlCl)WLTWSC-NH2 (linker 3-12 via mXylylene; reading uncertain) [3BP-4334]	7.1 to 8			
